Test system: Escherichia coli TOP10
Experiment: shrunken log2 fold change of peptide-encoding DNA abundance (4.5 h post-induction vs induction); higher = less antimicrobial activity (less host growth inhibition)
Settings: time post-induction: 4.5 h; library: site-saturation at positions 5, 18, 19, 20
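Note: peptides expressed intracellularly from a pBAD plasmid library in pooled LB shake-flask culture, induced with 0.3% L-arabinose, DNA abundance read by NGS, three biological replicates, DESeq2 with apeglm shrinkage.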

Sequence	shrunken log2 fold change
RRIRLRPPRLPRPRPRPLHGPRP	0.0823
RRIRLRPPRLPRPRPRPLIHPRP	-0.542
RRIRLRPPRLPRPRPRPLILPRP	-0.429
RRIRLRPPRLPRPRPRPLKQPRP	-0.0926
RRIRLRPPRLPRPRPRPLKRPRP	-0.0716
RRIRLRPPRLPRPRPRPLNGPRP	-0.217
RRIRLRPPRLPRPRPRPLPEPRP	0.39
RRIRLRPPRLPRPRPRPLPRPRP	0.475
RRIRLRPPRLPRPRPRPLQCPRP	0.121
RRIRLRPPRLPRPRPRPLSCPRP	-0.0916
RRIRLRPPRLPRPRPRPLSKPRP	0.0272
RRIRLRPPRLPRPRPRPLSQPRP	0.00591
RRIRLRPPRLPRPRPRPLSVPRP	-0.0123
RRIRLRPPRLPRPRPRPLYAPRP	-0.389
RRIRLRPPRLPRPRPRPMADPRP	0.0237
RRIRLRPPRLPRPRPRPMCHPRP	-0.0587
RRIRLRPPRLPRPRPRPMCPPRP	0.128
RRIRLRPPRLPRPRPRPMCTPRP	-0.0698
RRIRLRPPRLPRPRPRPMCYPRP	-0.294
RRIRLRPPRLPRPRPRPMDVPRP	0.0104
RRIRLRPPRLPRPRPRPMEMPRP	-0.0251
RRIRLRPPRLPRPRPRPMFNPRP	-0.524
RRIRLRPPRLPRPRPRPMFYPRP	-0.361
RRIRLRPPRLPRPRPRPMGDPRP	0.0227
RRIRLRPPRLPRPRPRPMHAPRP	0.12

Sequence	shrunken log2 fold change
RRIRLRPPRLPRPRPRPMIPPRP	-0.0974
RRIRLRPPRLPRPRPRPMIQPRP	-0.139
RRIRLRPPRLPRPRPRPMIWPRP	-0.0275
RRIRLRPPRLPRPRPRPMKAPRP	-0.0274
RRIRLRPPRLPRPRPRPMPDPRP	-0.00255
RRIRLRPPRLPRPRPRPMPRPRP	0.291
RRIRLRPPRLPRPRPRPMPSPRP	-0.0353
RRIRLRPPRLPRPRPRPMPYPRP	-0.0714
RRIRLRPPRLPRPRPRPMQCPRP	-0.0717
RRIRLRPPRLPRPRPRPMQYPRP	-0.208
RRIRLRPPRLPRPRPRPMRIPRP	0.269
RRIRLRPPRLPRPRPRPMSHPRP	0.0207
RRIRLRPPRLPRPRPRPMSVPRP	-0.18
RRIRLRPPRLPRPRPRPMTFPRP	-0.263
RRIRLRPPRLPRPRPRPMTIPRP	0.0154
RRIRLRPPRLPRPRPRPMTLPRP	-0.156
RRIRLRPPRLPRPRPRPMWMPRP	-0.00116
RRIRLRPPRLPRPRPRPNCMPRP	-0.415
RRIRLRPPRLPRPRPRPNCPPRP	-0.213
RRIRLRPPRLPRPRPRPNCWPRP	0.388
RRIRLRPPRLPRPRPRPNEVPRP	-0.0062
RRIRLRPPRLPRPRPRPNEYPRP	-0.321
RRIRLRPPRLPRPRPRPNFCPRP	0.101
RRIRLRPPRLPRPRPRPNFFPRP	0.247
RRIRLRPPRLPRPRPRPNHLPRP	0.0169

Sequence	shrunken log2 fold change
RRIRLRPPRLPRPRPRPNHYPRP	-0.505
RRIRLRPPRLPRPRPRPNKCPRP	-0.323
RRIRLRPPRLPRPRPRPNMDPRP	0.0212
RRIRLRPPRLPRPRPRPNMPPRP	-0.265
RRIRLRPPRLPRPRPRPNRLPRP	-0.0858
RRIRLRPPRLPRPRPRPNRPPRP	-0.0609
RRIRLRPPRLPRPRPRPNSDPRP	-0.2
RRIRLRPPRLPRPRPRPNSIPRP	-0.0133
RRIRLRPPRLPRPRPRPNSVPRP	-0.11
RRIRLRPPRLPRPRPRPNVKPRP	-0.107
RRIRLRPPRLPRPRPRPNWQPRP	0.351
RRIRLRPPRLPRPRPRPNWYPRP	-0.771
RRIRLRPPRLPRPRPRPPAHPRP	0.445
RRIRLRPPRLPRPRPRPPAPPRP	0.789
RRIRLRPPRLPRPRPRPPCCPRP	-0.0934
RRIRLRPPRLPRPRPRPPCYPRP	0.00883
RRIRLRPPRLPRPRPRPPDEPRP	0.264
RRIRLRPPRLPRPRPRPPGFPRP	0.278
RRIRLRPPRLPRPRPRPPGSPRP	0.226
RRIRLRPPRLPRPRPRPPHHPRP	0.253
RRIRLRPPRLPRPRPRPPHLPRP	-0.0637
RRIRLRPPRLPRPRPRPPIQPRP	0.174
RRIRLRPPRLPRPRPRPPKDPRP	0.137
RRIRLRPPRLPRPRPRPPKIPRP	0.0251
RRIRLRPPRLPRPRPRPPMDPRP	0.0462

Sequence	shrunken log2 fold change
RRIRLRPPRLPRPRPRPPNAPRP	0.121
RRIRLRPPRLPRPRPRPPNQPRP	0.0881
RRIRLRPPRLPRPRPRPPQAPRP	0.872
RRIRLRPPRLPRPRPRPPQIPRP	0.0736
RRIRLRPPRLPRPRPRPPQPPRP	0.816
RRIRLRPPRLPRPRPRPPRCPRP	0.744
RRIRLRPPRLPRPRPRPPRGPRP	0.637
RRIRLRPPRLPRPRPRPPSGPRP	0.0718
RRIRLRPPRLPRPRPRPPSKPRP	0.148
RRIRLRPPRLPRPRPRPPVEPRP	0.638
RRIRLRPPRLPRPRPRPPVMPRP	0.154
RRIRLRPPRLPRPRPRPPWNPRP	0.939
RRIRLRPPRLPRPRPRPPWTPRP	0.411
RRIRLRPPRLPRPRPRPPYGPRP	0.0785
RRIRLRPPRLPRPRPRPPYIPRP	-0.081
RRIRLRPPRLPRPRPRPQADPRP	0.112
RRIRLRPPRLPRPRPRPQAPPRP	0.138
RRIRLRPPRLPRPRPRPQAYPRP	-0.126
RRIRLRPPRLPRPRPRPQCQPRP	-0.399
RRIRLRPPRLPRPRPRPQCSPRP	-0.127
RRIRLRPPRLPRPRPRPQCVPRP	0.0615
RRIRLRPPRLPRPRPRPQEDPRP	-0.0336
RRIRLRPPRLPRPRPRPQEMPRP	-0.0408
RRIRLRPPRLPRPRPRPQFAPRP	0.0774
RRIRLRPPRLPRPRPRPQFEPRP	-0.12

Sequence	shrunken log2 fold change
RRIRLRPPRLPRPRPRPQHIPRP	-0.812
RRIRLRPPRLPRPRPRPQHNPRP	-0.507
RRIRLRPPRLPRPRPRPQHVPRP	-0.316
RRIRLRPPRLPRPRPRPQILPRP	-0.172
RRIRLRPPRLPRPRPRPQKDPRP	-0.449
RRIRLRPPRLPRPRPRPQLIPRP	-0.0529
RRIRLRPPRLPRPRPRPQNHPRP	-0.683
RRIRLRPPRLPRPRPRPQPHPRP	0.077
RRIRLRPPRLPRPRPRPQTAPRP	0.0246
RRIRLRPPRLPRPRPRPQTPPRP	0.358
RRIRLRPPRLPRPRPRPQWKPRP	0.0162
RRIRLRPPRLPRPRPRPRAHPRP	0.244
RRIRLRPPRLPRPRPRPRANPRP	0.126
RRIRLRPPRLPRPRPRPRCTPRP	0.0989
RRIRLRPPRLPRPRPRPRCYPRP	0.0161
RRIRLRPPRLPRPRPRPRDHPRP	0.0215
RRIRLRPPRLPRPRPRPRDKPRP	0.133
RRIRLRPPRLPRPRPRPRFHPRP	-0.208
RRIRLRPPRLPRPRPRPRFIPRP	-0.243
RRIRLRPPRLPRPRPRPRFPPRP	-0.0246
RRIRLRPPRLPRPRPRPRILPRP	-0.211
RRIRLRPPRLPRPRPRPRKYPRP	-0.882
RRIRLRPPRLPRPRPRPRNEPRP	-0.0675
RRIRLRPPRLPRPRPRPRNQPRP	-0.204
RRIRLRPPRLPRPRPRPRPDPRP	0.177

Sequence	shrunken log2 fold change
RRIRLRPPRLPRPRPRPRRFPRP	0.142
RRIRLRPPRLPRPRPRPRSCPRP	-0.0664
RRIRLRPPRLPRPRPRPRTYPRP	-0.319
RRIRLRPPRLPRPRPRPRWYPRP	-0.206
RRIRLRPPRLPRPRPRPRYNPRP	-0.093
RRIRLRPPRLPRPRPRPRYQPRP	-0.0283
RRIRLRPPRLPRPRPRPSCQPRP	-0.256
RRIRLRPPRLPRPRPRPSCTPRP	-0.501
RRIRLRPPRLPRPRPRPSDAPRP	0.0959
RRIRLRPPRLPRPRPRPSDQPRP	-0.18
RRIRLRPPRLPRPRPRPSDWPRP	-0.106
RRIRLRPPRLPRPRPRPSEEPRP	-0.0637
RRIRLRPPRLPRPRPRPSFGPRP	0.197
RRIRLRPPRLPRPRPRPSFPPRP	-0.159
RRIRLRPPRLPRPRPRPSFRPRP	-0.358
RRIRLRPPRLPRPRPRPSGWPRP	0.0673
RRIRLRPPRLPRPRPRPSHNPRP	-0.735
RRIRLRPPRLPRPRPRPSITPRP	-0.436
RRIRLRPPRLPRPRPRPSIWPRP	-0.548
RRIRLRPPRLPRPRPRPSLHPRP	-0.471
RRIRLRPPRLPRPRPRPSQRPRP	-0.00321
RRIRLRPPRLPRPRPRPSQSPRP	-0.511
RRIRLRPPRLPRPRPRPSRRPRP	-0.332
RRIRLRPPRLPRPRPRPSTWPRP	-0.53
RRIRLRPPRLPRPRPRPSWRPRP	0.276

From the supplement of paper PMC9112550, “Optimization of the antimicrobial peptide Bac7 by deep mutational scanning” (BMC Biology, 2022)
